Assay results taken from patent publication US20060270591A1 (published 2006).

B5: GAL4 DBD fused Rb fragment (aa 371-928) (other)
chain: MKLLSSIEQACDICRLKKLKCSKEKPKCAKCLKNNWECRYSPKTKRSPLTRAHLTEVESRLERLEQLFLLIFPREDLDMILKMDSLQDIKALLTGLFVQDNVNKDAVTDRLASVETDMPLTLRQHRISATSSSEESSNKGQRQLTVSPHTPVRTVMNTIQQLMMILNSASDQPSENLISYFNNCTVNPKESILKRVKDIGYIFKEKFAKAVGQGCVEIGSQRYKLGVRLYYRVMESMLKSEEERLSIQNFSKLLNDNIFHMSLLACALEVVMATYSRSTSQNLDSGTDLSFPWILNVLNLKAFDFYKVIESFIKAEGNLTREMIKHLERCEHRIMESLAWLSDSPLFDLIKQSKDREGPTDHLESACPLNLPLQNNHTAADMYLSPVRSPKKKGSTTRVNSTANAETQATSAFQTQKPLKSTSLSLFYKKVYRLAYLRLNTLCERLLSEHPELEHIIWTLFQHTLQNEYELMRDRHLDQIMMCSMYGICKVKNIDLKFKIIVTAYKDLPHAVQETFKRVLIKEEEYDSIIVFYNSVFMQRLKTNILQYASTRPPTLSPIPHIPRSPYKFPSSPLRIPGGNIYISPLKSPYKISEGLPTPTKMTPRSRILVSIGESFGTSEKFQKINQMVCNSDRVLKRSAEGSNPPKPLKKLRFDIEGSDEADGSKHLPGESKFQQKLAEMTSTRTRMQKQKMNDSMDTSNKEEK

Columns and labels:
[1] = molecular target: pGAL0-AR: GAL4 DBD (a.a. 1-147) fused to hinge and LBD of wtAR (human, UniProt P04386 1-147 (Saccharomyces cerevisiae entry)); assay: cell-based or functional assay
[2] = molecular target: B5; assay: mammalian two-hybrid, DU145, CAT
[3] = molecular target: T1, GAL4 DBD fused with C-terminal fragment (aa 595-918) of wild-type AR (human, UniProt P04386 1-147 (Saccharomyces cerevisiae entry)); assay: yeast two-hybrid, 10 nM DHT
T1 construct: range 1-147; also called pAS2-AR; pAS2-wtAR

[4] = molecular target: T2, VP16 fused AR (Example 3) (human, UniProt P10275 36-920); assay: mammalian two-hybrid, DU145, pG5-Luc
T2 construct: also called VP16-AR
T2 sequence: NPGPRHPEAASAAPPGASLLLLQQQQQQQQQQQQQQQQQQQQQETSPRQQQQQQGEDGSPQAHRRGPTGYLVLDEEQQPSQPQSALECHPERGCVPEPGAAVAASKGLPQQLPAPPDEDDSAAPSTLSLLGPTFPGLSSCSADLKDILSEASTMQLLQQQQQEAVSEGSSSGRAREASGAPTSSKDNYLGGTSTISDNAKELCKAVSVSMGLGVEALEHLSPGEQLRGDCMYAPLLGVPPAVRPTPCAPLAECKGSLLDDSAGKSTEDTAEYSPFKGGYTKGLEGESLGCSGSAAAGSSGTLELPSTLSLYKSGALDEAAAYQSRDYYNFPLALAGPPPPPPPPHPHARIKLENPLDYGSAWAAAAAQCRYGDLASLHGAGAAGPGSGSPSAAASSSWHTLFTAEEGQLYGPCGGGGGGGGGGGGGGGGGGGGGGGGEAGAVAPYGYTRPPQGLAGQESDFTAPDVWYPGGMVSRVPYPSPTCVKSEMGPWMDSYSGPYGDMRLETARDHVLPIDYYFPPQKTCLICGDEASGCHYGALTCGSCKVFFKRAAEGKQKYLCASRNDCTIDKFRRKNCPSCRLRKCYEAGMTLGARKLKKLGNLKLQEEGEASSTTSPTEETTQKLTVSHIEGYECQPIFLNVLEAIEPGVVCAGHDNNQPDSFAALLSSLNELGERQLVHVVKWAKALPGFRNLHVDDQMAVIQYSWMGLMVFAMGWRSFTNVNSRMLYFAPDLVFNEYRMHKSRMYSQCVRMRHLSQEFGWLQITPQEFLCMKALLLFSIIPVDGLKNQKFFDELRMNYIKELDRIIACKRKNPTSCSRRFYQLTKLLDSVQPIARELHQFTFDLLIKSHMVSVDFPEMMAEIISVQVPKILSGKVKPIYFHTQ

[5] = molecular target: T3, VP16 fused near full-length AR (nAR, aa 36-918) (human, UniProt P10275 36-919); assay: cell-based or functional assay
T3 sequence: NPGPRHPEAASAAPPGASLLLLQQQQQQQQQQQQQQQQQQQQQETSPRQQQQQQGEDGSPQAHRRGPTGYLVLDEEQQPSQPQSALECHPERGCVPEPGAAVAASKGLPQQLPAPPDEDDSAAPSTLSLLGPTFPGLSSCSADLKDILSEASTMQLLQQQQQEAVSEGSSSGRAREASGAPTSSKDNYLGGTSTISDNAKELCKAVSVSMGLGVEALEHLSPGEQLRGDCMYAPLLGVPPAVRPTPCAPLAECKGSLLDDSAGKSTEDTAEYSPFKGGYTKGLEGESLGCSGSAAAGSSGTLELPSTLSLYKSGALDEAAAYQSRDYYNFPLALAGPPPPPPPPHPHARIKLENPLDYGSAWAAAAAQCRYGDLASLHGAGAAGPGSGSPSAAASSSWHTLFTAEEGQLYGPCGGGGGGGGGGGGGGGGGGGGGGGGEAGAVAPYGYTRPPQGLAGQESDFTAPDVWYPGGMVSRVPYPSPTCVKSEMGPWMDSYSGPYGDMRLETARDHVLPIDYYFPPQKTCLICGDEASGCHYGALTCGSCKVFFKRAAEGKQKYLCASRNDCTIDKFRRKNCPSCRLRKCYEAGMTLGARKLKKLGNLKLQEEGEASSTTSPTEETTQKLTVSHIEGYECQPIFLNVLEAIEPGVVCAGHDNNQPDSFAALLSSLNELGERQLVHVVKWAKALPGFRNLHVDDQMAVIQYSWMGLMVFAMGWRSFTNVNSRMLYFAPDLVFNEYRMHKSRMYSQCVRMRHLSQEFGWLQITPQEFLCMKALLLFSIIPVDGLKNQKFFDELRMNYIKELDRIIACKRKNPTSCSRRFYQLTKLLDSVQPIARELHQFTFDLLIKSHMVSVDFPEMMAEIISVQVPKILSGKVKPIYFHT

[6] = molecular target: T1, GAL4 DBD fused with C-terminal fragment …; assay: yeast two-hybrid, plate nutritional selection

B1: ARA70 (mammalian two-hybrid construct of Example 1) (other)
chain: MNTFQDQSGSSSNREPLLRCSDARRDLELAIGGVLRAEQQIKDNLREVKAQIHSCISRHLECLRSREVWLYEQVDLIYQLKEETLQQQAQQLYSLLGQFNCLTHQLECTQNKDLANQVSVCLERLGSLTLKPEDSTVLLFEADTITLRQTITTFGSLKTIQIPEHLMAHASSANIGPFLEKRGCISMPEQKSASGIVAVPFSEWLLGSKPASGYQAPYIPSTDPQDWLTQKQTLENSQTSSRACNFFNNVGGNLKGLENWLLKSEKSSYQKCNSHSTTSSFSIEMEKVGDQELPDQDEMDLSDWLVTPQESHKLRKPENGSRETSEKFKLLFQSYNVNDWLVKTDSCTNCQGNQPKGVEIENLGNLKCLNDHLEAKKPLSTPSMVTEDWLVQNHQDPCKVEEVCRANEPCTSFAECVCDENCEKEALYKWLLKKEGKDKNGMPVEPKPEPEKHKDSLNMWLCPRKEVIEQTKAPKAMTPSRIADSFQVIKNSPLSEWLIRPPYKEGSPKEVPGTEDRAGKQKFKSPMNTSWCSFNTADWVLPGKKMGNLSQLSSGEDKWLLRKKAQEVLLNSPLQEEHNFPPDHYGLPAVCDLFACMQLKVDKEKWLYRTPLQM
notes: pGAL4-VP16 was used to construct a fusion of ARA70; limits and fusion partner not clearly stated
B1 was tested. Which “CAT activity, mammalian two-hybrid assay” value [1] did it give?
The value was 12 fold.

Does B1 bind [2]?
Result: no binding

B2: GALAD70-N1: GAL4AD fused ARA70 aa 1-175 (other, not shown: large carriers)
chain: MNTFQDQSGSSSNREPLLRCSDARRDLELAIGGVLRAEQQIKDNLREVKAQIHSCISRHLECLRSREVWLYEQVDLIYQLKEETLQQQAQQLYSLLGQFNCLTHQLECTQNKDLANQVSVCLERLGSLTLKPEDSTVLLFEADTITLRQTITTFGSLKTIQIPEHLMAHASSANI
notes: also called ARA70-N1
Does B2 bind [3]?
Result: no binding

B3: GALAD70-C: GAL4AD fused ARA70 aa 383-614 (other, not shown: large carriers)
chain: SMVTEDWLVQNHQDPCKVEEVCRANEPCTSFAECVCDENCEKEALYKWLLKKEGKDKNGMPVEPKPEPEKHKDSLNMWLCPRKEVIEQTKAPKAMTPSRIADSFQVIKNSPLSEWLIRPPYKEGSPKEVPGTEDRAGKQKFKSPMNTSWCSFNTADWVLPGKKMGNLSQLSSGEDKWLLRKKAQEVLLNSPLQEEHNFPPDHYGLPAVCDLFACMQLKVDKEKWLYRTPLQM
notes: also called ARA70-C (aa 383-614)
Does B3 bind [3]?
Result: no binding

B4: GAL4 DBD fused ARA70-N1 (aa 1-175) (other)
chain: MKLLSSIEQACDICRLKKLKCSKEKPKCAKCLKNNWECRYSPKTKRSPLTRAHLTEVESRLERLEQLFLLIFPREDLDMILKMDSLQDIKALLTGLFVQDNVNKDAVTDRLASVETDMPLTLRQHRISATSSSEESSNKGQRQLTVSMNTFQDQSGSSSNREPLLRCSDARRDLELAIGGVLRAEQQIKDNLREVKAQIHSCISRHLECLRSREVWLYEQVDLIYQLKEETLQQQAQQLYSLLGQFNCLTHQLECTQNKDLANQVSVCLERLGSLTLKPEDSTVLLFEADTITLRQTITTFGSLKTIQIPEHLMAHASSANI
notes: Mammalian two-hybrid
Does B4 bind [4]?
Result: no binding

B5 was tested. Which “CAT activity, mammalian two-hybrid system, DU145 cells” value [5] did it give?
Its value is 3 fold.

B6: GALAD70-N2: GAL4AD fused ARA70 aa 176-401 (other, not shown: large carriers)
chain: GPFLEKRGCISMPEQKSASGIVAVPFSEWLLGSKPASGYQAPYIPSTDPQDWLTQKQTLENSQTSSRACNFFNNVGGNLKGLENWLLKSEKSSYQKCNSHSTTSSFSIEMEKVGDQELPDQDEMDLSDWLVTPQESHKLRKPENGSRETSEKFKLLFQSYNVNDWLVKTDSCTNCQGNQPKGVEIENLGNLKCLNDHLEAKKPLSTPSMVTEDWLVQNHQDPCKVE
notes: also called ARA70-N2 peptide (aa 176 to 401); ARA70-N2
Does B6 bind [6]?
Result: binds

Does QQLYSLLGQF (peptide, not shown: large carriers, also called ARA70 LXXLL (aa 90 to 99)) [GALAD70-LXXLL: GAL4AD fused ARA70 aa 90-99] bind [3]?
Result: no binding

B7: GAL4 DBD fused ARA70-C (aa 383-614) (other)
chain: MKLLSSIEQACDICRLKKLKCSKEKPKCAKCLKNNWECRYSPKTKRSPLTRAHLTEVESRLERLEQLFLLIFPREDLDMILKMDSLQDIKALLTGLFVQDNVNKDAVTDRLASVETDMPLTLRQHRISATSSSEESSNKGQRQLTVSSMVTEDWLVQNHQDPCKVEEVCRANEPCTSFAECVCDENCEKEALYKWLLKKEGKDKNGMPVEPKPEPEKHKDSLNMWLCPRKEVIEQTKAPKAMTPSRIADSFQVIKNSPLSEWLIRPPYKEGSPKEVPGTEDRAGKQKFKSPMNTSWCSFNTADWVLPGKKMGNLSQLSSGEDKWLLRKKAQEVLLNSPLQEEHNFPPDHYGLPAVCDLFACMQLKVDKEKWLYRTPLQM
notes: Mammalian two-hybrid
Does B7 bind [4]?
Result: no binding

B8: GALAD70-N: GAL4AD fused ARA70 aa 1-401 (other, not shown: large carriers)
chain: MNTFQDQSGSSSNREPLLRCSDARRDLELAIGGVLRAEQQIKDNLREVKAQIHSCISRHLECLRSREVWLYEQVDLIYQLKEETLQQQAQQLYSLLGQFNCLTHQLECTQNKDLANQVSVCLERLGSLTLKPEDSTVLLFEADTITLRQTITTFGSLKTIQIPEHLMAHASSANIGPFLEKRGCISMPEQKSASGIVAVPFSEWLLGSKPASGYQAPYIPSTDPQDWLTQKQTLENSQTSSRACNFFNNVGGNLKGLENWLLKSEKSSYQKCNSHSTTSSFSIEMEKVGDQELPDQDEMDLSDWLVTPQESHKLRKPENGSRETSEKFKLLFQSYNVNDWLVKTDSCTNCQGNQPKGVEIENLGNLKCLNDHLEAKKPLSTPSMVTEDWLVQNHQDPCKVE
notes: the legend says GAL4AD fusions; also called ARA70N peptide (aa 1 to 401); ARA70-N
Does B8 bind [6]?
Result: binds

B9: VP16 fused AR-LBD (aa 590-918) (receptor)
chain: KQKYLCASRNDCTIDKFRRKNCPSCRLRKCYEAGMTLGARKLKKLGNLKLQEEGEASSTTSPTEETTQKLTVSHIEGYECQPIFLNVLEAIEPGVVCAGHDNNQPDSFAALLSSLNELGERQLVHVVKWAKALPGFRNLHVDDQMAVIQYSWMGLMVFAMGWRSFTNVNSRMLYFAPDLVFNEYRMHKSRMYSQCVRMRHLSQEFGWLQITPQEFLCMKALLLFSIIPVDGLKNQKFFDELRMNYIKELDRIIACKRKNPTSCSRRFYQLTKLLDSVQPIARELHQFTFDLLIKSHMVSVDFPEMMAEIISVQVPKILSGKVKPIYFHT
notes: also called pCMX-VP16-AR
Does B9 bind [2]?
Result: no binding
